In US20120020878A1, “FUSOGENIC PROPERTIES OF SAPOSIN C AND RELATED PROTEINS AND PEPTIDES FOR APPLICATION TO TRANSMEMBRANE DRUG DELIVERY SYSTEMS” (CHILDREN'S HOSPITAL MEDICAL CENTER, priority 2008, published 2012):
Residue numbers refer to the chain shown, from its start. Numbers in names are those of the source.

Key:
tumors = assay: Tumor imaging experiments with SapC peptide nanovesicles; type: in vivo, mice; settings: peptide in phospholipid (e.g., DOPS) nanovesicles
From the text: The nanovesicles are stable and relatively uncomplicated to make. […] For example, our fluorophore-nanovesicles offer a rapid and precise imaging method for seeing and measuring the change in tumor size of living mice. The tissue-homing, imaging nanovescicles of the present invention enable the researchers and physicians to determine the location and size of a broad range of tumors, including hidden, metastatic tumors.
Several saposin C peptides were synthesized to test their activity in the nanovesicles. […] In one embodiment, the peptide comprises one of more sequences selected from the groups MCS, LCS, and VCS within the peptide sequence. In certain embodiments, amino acids, such as Lys or Cys, are required for the tumor-homing effect.

[1] = Fusion mechanism study with preformed saposin C-PS(18:1,1) liposome complexes
Experimental: Protein conformational changes are thought to play a role in protein-mediated membrane fusion. This fusion mechanism is evaluated using saposin C-dependent membrane fusion. First, saposin C-PS(18:1,1) liposome complexes are formed. In this saposin C-anchored membrane, protein conformation is altered. This complex is stable from pH 3 to 10, and in low concentrations of SDS solution.
Since the Trp in saposin C(0W) is embedded inside of lipid bilayer, the change of its signal is indicative of that the surrounding environment of Trp has been changed. After about 20 to 30 ms, Trp fluorescence signal decreases to the starting level. […] Shortly after this, the signal drops back to starting level signaling on end of the fusion process. […] Therefore, a conformational change of saposin C upon lipid binding is […] for its fusogenic activity.

acid β-glucosidase = biological target: T1, acid β-glucosidase (Homo sapiens, UniProt P04062); assay: Activation of acid β-glucosidase in liposomal reconstitution system; type: biochemical
T1 sequence (P04062 40-536): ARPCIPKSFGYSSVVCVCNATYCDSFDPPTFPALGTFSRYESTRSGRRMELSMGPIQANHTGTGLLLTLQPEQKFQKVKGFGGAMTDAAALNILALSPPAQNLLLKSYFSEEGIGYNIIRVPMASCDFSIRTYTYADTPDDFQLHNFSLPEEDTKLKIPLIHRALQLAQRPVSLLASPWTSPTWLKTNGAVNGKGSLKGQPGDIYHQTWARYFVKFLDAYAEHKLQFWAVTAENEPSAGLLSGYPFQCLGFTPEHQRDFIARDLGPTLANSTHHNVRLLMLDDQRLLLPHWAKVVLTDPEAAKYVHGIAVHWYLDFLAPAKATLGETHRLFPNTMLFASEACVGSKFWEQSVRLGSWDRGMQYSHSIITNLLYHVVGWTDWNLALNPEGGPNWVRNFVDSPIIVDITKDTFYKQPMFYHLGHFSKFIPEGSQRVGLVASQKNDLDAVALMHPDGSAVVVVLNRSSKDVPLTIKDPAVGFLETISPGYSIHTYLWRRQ
Experimental: Functional saposins were overexpressed in BL21(DE3) cells using a pET 21a series vector. Following IPTG induction at 37° C. or 30° C., large amounts of saposins containing His•Tag were found in the soluble fraction of the disrupted cells. These were conveniently purified to electrophoretic homogeneity on nickel-loaded columns. Alternatively, saposins without His•Tag were generated by introducing a stop codon after protein coding region, and then purified using immuno-affinity columns with T7-taq monoclonal antibody. […] Circular dichroism spectra, light scattering, and ES_MS analyses were used to evaluate the physical properties of the purified saposins, such as aggregation status and molecular weight. Trp-saposins without His•Tag were also generated for necessary control experiments. The functional integrity of recombinant saposin C is determined using delipidated and homogenous acid β-glucosidase in a liposomal reconstitution system and in neuritogenic assays. Recombinant saposin B function is determined using a sulfatide binding assay.

[2] = R18 dequenching stopped-flow membrane fusion assay; settings: R18-labeled and unlabeled PS(18:1,1) vesicles
From the text: Fluorescence probes have been widely used to determine membrane fusion, such as fluorescence dequenching, and fluorescence resonance energy transfer (FET), and can be used for quantitative and kinetics analyses. The dequenching approach is used to investigate saposin C's fusogenic activity. Octadecyl rhodamine B (R18) is selected as fluorescence probe and is entrapped in internal aqueous compartment of liposomal vesicles by co-sonication with BPS or PS(18:1,1).
Fluorescence increase (dequenching) of R18 occurs upon R18 concentration decreases. After non-labeled and labeled vesicles fuse, the R18 concentration is diluted, resulting in an increase in intensity of fluorescence. R18-labeled vesicles (lipid:R18=96:4, mol:mol) are mixed with the same lipid vesicles without fluorescence probe. Stopped-flow assays are conducted to quickly mix these vesicles with saposin C or Ca^2+ ion. Time-trace curves are generated for kinetic analysis.

[3] = Vesicle size change determination (N4 plus submicron particle sizer)
From the text: The amino acid residues 51-67 are necessary, but not sufficient, for its optimal enzymatic activation function. The disulfide structure and conformational alteration of saposin C upon lipid binding are also required for this activity. Three approaches are used for this study: (1) stopped-flow monitoring reduction of self-quenching resulting from fusion of fluorescence probe-containing vesicle with non-fluorescent vesicle induced by saposin C; (2) monitoring the lipid vesicle size changes upon addition of saposin C to vesicles, the size distribution as determined using N4 plus submicron particle sizer (Coulter Co.); (3) monitoring intrinsic fluorescence of Trp-saposin C change during liposomal fusion.
Electron microscopy (EM) is used for vesicle fusion analysis, since the size of fused vesicles is bigger than those of non-fused. N4 plus submicron particle size is used to estimate particle sizes in the range of 3 nm to 3 um since most liposomes fit in this range. Sonication conditions with a cup sonicator give mono-dispersed BPS-liposomes with ˜200 nm in size. Upon addition of saposin C, these vesicles change to a larger size up to 2-3 um. The size increase is related to vesicles fusion as shown by the above dequenching experiments.
Saposin C promotes the size changes at ˜50 nM concentration. To define the regions responsible for this fusion property, peptides containing only 50% of the NH2-terminal or 50% of the COOH-terminal halves in saposin C are tested. Both peptides show fusion activity.

[4] = tested on: cultured mouse cortical and hippocampal neurons; assay: Transport into cultured neurons; type: cell-based; settings: facilitated by complexes with DOPS liposomes
Experimental: Saposin C can be transported into endosomal and lysosomal compartments using saposin-C liposomes containing long-chain anionic phospholipids. This method can be used for the treatment of neurological diseases including, for example, those in which MVB accumulation contributes to pathology and progression of disease.
Primary Cortical Neuron Cultures—Cortical neurons are cultured in serum-free Neuroblasal medium with B27 supplements as described by Whitmarsh et al.^44 Take out E16 mouse embryos, cut the head and place them into ice-cold Ca/Mg-free Hank Balance Salt Solution (HBSS) with papain (1 mg/ml). The brain is dissected out and place scalpel along the dorsal midline between the two cerebral hemispheres but slightly deviate towards to the side as it cut. This will give a clean cerebral cortex. Peel out the meninges gently without touching the medial side of the cortex where the hippocampus is located. Cut out the cortex with curved fine surgical scissors and collect them in ice-cold HBSS. The cortical tissue is replaced in papain HBSS solution for 15-20 minutes at room temperature to soften up the tissues. Transfer them to papain-inhibitor solution for another 5 minutes at room temperature and finally back to 2 ml ice-cold HBSS. Fisherbran 12-546 (18CIR-2) coverglasses in 12-well plate are coated with PEI containing laminin overnight. […]

[5] = Stopped-flow Trp fluorescence of saposin C/liposome complex formation; type: binding; settings: PS(18:1,1) or BPS vesicles
From the text: To investigate temporal and spatial interactions of saposins and liposomal membrane, fluorescence stopped-flow and quenching approaches are used with Trp as the intrinsic fluorescence probe of the saposins. These experiments allow identification of regional interactions between saposins and lipid bilayers, and also the kinetics of their binding.
This binding induces change is lipid-concentration dependent and requires at least one unsaturated fatty acid chain. To evaluate the kinetics of this interaction, stopped-flow experiments are conducted the change in fluorescence during saposin C/liposome complex formation is monitored. When saposin C(0W) is mixed with PS(18:1,1) or BPS vesicles, fluorescence of Trp is increased, but the time course of this change is undetectable due to limitation of the machine's capability. Apparently, the interaction of saposin C and unsaturated PS containing membranes occurs within at least 10 ms.

In the case of EKEILDAFDKMCSKLPK [Saposin E24-K41], the tumor-homing function (tumors) is reported as “optimal tumor-homing function”.

With “EVCEFLVKEVTKLIDNNKTEKEILDAFDKMCSKLP [Saposin E6-P40, SapC peptide E6-P40]” the tumor-homing function (tumors) was “tumor-homing function”.

In the case of FDKMCSKLPK [F32 to K41], the tumor-homing function (tumors) is reported as “tumor-homing function”.

In the case of “KSLSEECQEVVDTYGSSILSILLEEVSPELVCSMLHLCSG [Saposin K41-G80, SapC peptide K41-G80]”, the tumor-homing function (tumors) is reported as “tumor-homing function”.

For “SPELVCSMLHLCSG [Saposin S67-G80, SapC peptide S67-G80]”, the tumor-homing function (tumors) was “tumor-homing function”.

B1: Saposin C: saposin C (SapC, a small lysosomal protein, 80 AA); recombinant, produced in E. coli (protein)
chain: SDVYCEVCEFLVKEVTKLIDNNKTEKEILDAFDKMCSKLPKSLSEECQEVVDTYGSSILSILLEEVSPELVCSMLHLCSG
modifications: left off: small tags and cut ends
notes: saposin C (SapC, a small lysosomal protein, 80 AA); recombinant, produced in E. coli
In the case of B1, the “fusogenic activity when bound to lipid membrane” value [1] is reported as “retains the fusogenic activity”, the “activation of acid β-glucosidase” value (acid β-glucosidase; purified recombinant protein) is reported as “excellent activation” and the “kinetics of induced membrane fusion” value [2] is reported as “the same kinetics as those with Ca^2+”. The “concentration that promotes the size changes” value [3] was ~50 nM, the “vesicle size upon addition of saposin C” value ([3]; mono-dispersed BPS-liposomes of ˜200 nm before addition) was 2-3 um and the vesicle size change ([3]; pH 4.7, 10 min period) was “enlarges vesicle size”. For the same molecule, the vesicle size change ([3]; pH 7.4, 10 min period) was “not”, the transport into neurons [4] was “transported into the cultured mouse cortical and hippocampal neurons” and the “time within which interaction with unsaturated PS containing membranes occurs” value [5] was ≤ 10 ms.

B2: saposin C(S37W): saposin C with a Trp at residue 37 (i.e., in the middle) (protein, UniProt P07602 311-390, looked up, variant S37W)
Saposin-C: B1 chain with S37W
modifications: Saposin-C
With B2 the “effect of Trp substitution on activation properties” value (acid β-glucosidase) was “no effect”.
